Three molecules from PMC11040147 can be followed below.

Common to all, as to assay: EMSA
Data set [1] concerns the target T1, SF3B4 (human? (HeLa cDNA), UniProt Q15427 1-424).
In data set [2] the target is T1, SF3B4. This is another data set of the same source.
Data set [3] deals with T1, SF3B4. This is another data set of the same source.

Read-outs that look alike come from different tables or passages of the source.

T1 sequence (Q15427 whole entry): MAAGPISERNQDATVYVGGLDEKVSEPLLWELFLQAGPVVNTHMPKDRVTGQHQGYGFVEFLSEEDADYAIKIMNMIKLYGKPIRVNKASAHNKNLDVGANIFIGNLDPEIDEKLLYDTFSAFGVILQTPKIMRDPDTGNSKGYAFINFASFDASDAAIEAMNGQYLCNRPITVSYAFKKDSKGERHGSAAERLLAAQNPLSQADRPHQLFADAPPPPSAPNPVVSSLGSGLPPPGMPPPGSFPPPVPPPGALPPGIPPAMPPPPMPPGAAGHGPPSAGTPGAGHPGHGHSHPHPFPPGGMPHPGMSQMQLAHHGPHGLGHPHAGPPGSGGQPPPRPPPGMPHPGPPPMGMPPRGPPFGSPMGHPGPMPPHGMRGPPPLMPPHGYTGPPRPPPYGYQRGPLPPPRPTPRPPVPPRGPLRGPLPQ

Consider AGAGUGAAGUCUGAAGCGCUGAG (ssRNA) [PPP6R2-mut], for which, in data set [1], the binding result was “no binding”.
On to GGGAGGUGGGAGCCGAGGGUGGG (structured_RNA) [G4-INPPL1], for which the binding result in data set [2] was “binds”.
Take GGTTAGGGTTAGGGTTAGGGTTAGGGTTAG (structured_DNA) [hTelo]: the binding result in data set [3] was “binds”.
